Results on 2 proteins are retold here after US20050106661A1 (RIKEN, published 2005).

Substitutions are numbered along the chain they refer to. In names and notes the source's numbering stands.

Data set [1] deals with the molecule itself. The experiment in a line: formation of multimer (light scattering); self-association. As for the experimental part: The fluorescent protein was equilibrated with 50 mM HEPES (pH 7.5) and 150 mM KCl.
Data set [2] deals with the molecule itself. Briefly: molecular weight by light scattering (34 kDa).

B1: Azami-Green, fluorescent protein derived from Galaxea fascicularis (other)
chain: MSVIKPEMKIKLCMRGTVNGHNFVIEGEGKGNPYEGTQILDLNVTEGAPLPFAYDILTTVFQYGNRAFTKYPADIQDYFKQTFPEGYHWERSMTYEDQGICTATSNISMRGDCFFYDIRFDGVNFPPNGPVMQKKTLKWEPSTEKMYVRDGVLKGDVNMALLLEGGGHYRCDFKTTYKAKKDVRLPDYHFVDHRIEILKHDKDYNKVKLYENAVARYSMLPSQAK
notes: Expressed in E. coli with a C-terminal His-tag and purified on Ni-agarose; also called wild-type Azami-Green; fluorescent protein of the present invention derived from coral; not shown: C-terminal His-tag from the pET28 vector (NcoI/XhoI cloning)
B1: the binding result in data set [1] was “binds”.

B2: mAG, monomeric mutant of Azami-Green (V123T, Y188A, F190K) (other)
chain: B1 chain with V123T, Y188A, F190K
notes: also called modified monomeric fluorescent protein
B2: the binding result in data set [2] was “no binding”.
